How the values were obtained:
[1] = Luciferase activity (brightness) of LuxSit-i variants; format: biochemical
[2] = as above; format: biochemical; settings: relative to LuxSit-i
Protocol: SSM was performed to evaluate the effect of single mutations on the luciferase activity of LuxSit-i. FIG. 3 graphically presents the mutation frequency at the positions found in the SSM as beneficial for increasing luciferase activity.
FIG. 4A provides data for luciferase activity for MBIO-148, MBIO-158 and Luxsit-i. MBIO-148, MBIO-158, and Luxsit-i were serially diluted starting from a final in-well concentration of 10,000 pM. Each dilution was combined with Diphenylterazine (DTZ) to a final in-well concentration of […]. Points shown are from the initial reading once the plate read was started.
FIG. 4B provides data for luciferase activity for MBIO-148, MBIO-301, MBIO-302, and LuxSit-i. MBIO-148, MBIO-301, MBIO-302, and Luxsit-i were serially diluted starting from a final in-well concentration of 500 pM. Each dilution was combined with DTZ to a final in-well concentration of 10 μM. Points shown are from the initial reading once the plate read was started.

[3] = Stability of LuxSit-i variants (yeast display protease resistance, static light scattering); format: physicochemical; settings: relative to LuxSit-i
Protocol: In certain aspects, these polypeptides have improved stability at high temperatures as compared to LuxSit-i. For example, these polypeptides are stable at higher temperatures as compared to LuxSit-i. Stability may be measured by enzymatic activity and/or protein misfolding measured over a period of time. In certain embodiments, stability may be measured using static light scattering (SLS).
A single saturation mutagenesis (SSM) was performed to evaluate by yeast display the effect of single mutations in the stability of LuxSit-i (SEQ ID NO:1). The SSM library was transformed into electrocompetent cells of the strain EBY100. Twenty million cells were labeled with anti-myc FITC antibody in order to detect protein expression on the yeast surface by measuring fluorescence emission. Cells were sorted using a Sony SH800 cell sorter and those showing protein expression (FITC signal) were collected and grown. DNA was extracted from the sorted cells using conventional DNA extraction conventional methods. The DNA library was sequenced using Nanopore technology. Single amino acid substitutions that increase protein stability are enriched after sorting.
(§1) Single saturation mutagenesis (SSM) was performed to evaluate (by yeast display) the effect of single mutations in the stability of LuxSit-i-i. The SSM library was transformed into electrocompetent cells of the strain EBY100. Twenty million cells were labeled with an anti-myc FITC antibody to detect protein expression on the yeast surface by measuring the emission of fluorescence by FITC. Yeast were incubated with a mixture of 3.5 uM trypsin and 1.4 uM chymotrypsin (1/729 dilution of the stock solution) at 25° C. for 15 min. Cells were sorted using a Sony SH800 cell sorter and those showing protein expression (FITC signal) after protease incubation were collected and grown. DNA was extracted from the sorted cells using conventional DNA extraction conventional methods. The DNA library was sequenced using Nanopore technology. Single amino acid substitutions that increase protein stability are enriched after sorting.
as §1, with “LuxSit-i.” for “LuxSit-i-i.”, “antibody in order” for “antibody”, “10” for “3.5”, “4” for “1.4”, “(1/243” for “(1/729”
as §1, with “LuxSit-i.” for “LuxSit-i-i.”, “antibody in order” for “antibody”, “15” for “3.5”, “6” for “1.4”, “(1/162” for “(1/729”, “sorting. […]” for “sorting.”

LgLux_4039 = target: T1, LgLux_4039; experiment: cell-based or functional assay
T1 chain: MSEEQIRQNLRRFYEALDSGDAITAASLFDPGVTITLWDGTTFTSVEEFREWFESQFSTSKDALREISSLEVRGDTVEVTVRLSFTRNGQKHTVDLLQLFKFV

[4] = Table 3, combined substitutions

B1: MBIO-4039_No Lysine Residues: LuxSit-i variant that lacks lysine residues, SEQ ID NO: 2737 (protein)
chain: MSGMSEEQIRQNLRRFYEALDSGDAITAASLFDPGVTITLWDGTTFTSVEEFREWFESQFSTSRDALREISSLEVRGDTVEVTVRLSFTRNGQRHTVDLLQLFRFVGNRVVAVRVYVNPT
[1]; all lysine residues substituted
  activity of variant that lacks lysine residues: retains activity

B2: MBIO-301: LuxSit-i variant F9N, Q64L, A85F, H87R, H99L, T108D, H113Y, W100F; SEQ ID NO 104 (protein)
chain: MSEEQIRQNLRRFYEALDSGDADTAASLFHPGVTIHLWDGVTFTSREEFREWFERLFSTSKDALREIKSLEVRGDTVEVHVQLHFTRNGQKHTVDLTHLFHFRGNRVDEVRVYINPTG
[1]; among mutants from combinatorial library, Table 10
  luciferase activity: highest

B3: MBIO-2466: MBIO-301 variant, H30D H36T H80T H84S H92S H98Q H101R; SEQ ID NO 2703 (protein)
chain: MSEEQIRQNLRRFYEALDSGDADTAASLFDPGVTITLWDGVTFTSREEFREWFERLFSTSKDALREIKSLEVRGDTVEVTVQLSFTRNGQKSTVDLTQLFRFRGNRVDEVRVYINPTG
[1]; relative to MBIO-301
  luciferase activity, higher than MBIO-301: more than 5 ×

B4: MBIO-155: LuxSit-i variant F9V_A85F_H87L_Q64W, SEQ ID NO: 4 (protein)
chain: MSEEQIRQVLRRFYEALDSGDADTAASLFHPGVTIHLWDGVTFTSREEFREWFERLFSTSKDAWREIKSLEVRGDTVEVHVQLHFTLNGQKHTVDLTHHWHFRGNRVTEVRVHINPTG
[2]; [4]
  Brightness improvement: Slight increase
[3]; [4]
  Stability improvement: Slight improvement

B5: MBIO-151: LuxSit-i variant F9S_A85F_H87L, SEQ ID NO: 7 (protein)
chain: MSEEQIRQSLRRFYEALDSGDADTAASLFHPGVTIHLWDGVTFTSREEFREWFERLFSTSKDAQREIKSLEVRGDTVEVHVQLHFTLNGQKHTVDLTHHWHFRGNRVTEVRVHINPTG
[2]; [4]
  Brightness improvement: No change
[3]; [4]
  Stability improvement: No change

B6: MBIO-147: LuxSit-i variant W100F_A85F_H87L, SEQ ID NO: 3 (protein)
chain: MSEEQIRQFLRRFYEALDSGDADTAASLFHPGVTIHLWDGVTFTSREEFREWFERLFSTSKDAQREIKSLEVRGDTVEVHVQLHFTLNGQKHTVDLTHHFHFRGNRVTEVRVHINPTG
[2]; [4]
  Brightness improvement: Increase
[3]; [4]
  Stability improvement: Monomeric

B7: MBIO-149: LuxSit-i variant A85F, SEQ ID NO 82 (protein)
chain: MSEEQIRQFLRRFYEALDSGDADTAASLFHPGVTIHLWDGVTFTSREEFREWFERLFSTSKDAQREIKSLEVRGDTVEVHVQLHFTHNGQKHTVDLTHHWHFRGNRVTEVRVHINPTG
[2]; Table 2, single substitutions
  Brightness improvement: Slight increase
[3]; Table 2, single substitutions
  Stability improvement: No change

B8: MBIO-150: LuxSit-i variant F9S, SEQ ID NO 73 (protein)
chain: MSEEQIRQSLRRFYEALDSGDADTAASLFHPGVTIHLWDGVTFTSREEFREWFERLFSTSKDAQREIKSLEVRGDTVEVHVQLHATHNGQKHTVDLTHHWHFRGNRVTEVRVHINPTG
[2]; Table 2, single substitutions
  Brightness improvement: No change
[3]; Table 2, single substitutions
  Stability improvement: Monomeric

B9: MBIO-148: LuxSit-i variant W100F_A85F_H87L_Q64W, SEQ ID NO: 2600 (SEQ ID NO 2 in Table 4) (protein)
chain: MSEEQIRQFLRRFYEALDSGDADTAASLFHPGVTIHLWDGVTFTSREEFREWFERLFSTSKDAWREIKSLEVRGDTVEVHVQLHFTLNGQKHTVDLTHHFHFRGNRVTEVRVHINPTG
[2]; [4]
  Brightness improvement: Increase
[3]; [4]
  Stability improvement: Monomeric

B10: MBIO-156: LuxSit-i variant H87L, SEQ ID NO 88 (protein)
chain: MSEEQIRQFLRRFYEALDSGDADTAASLFHPGVTIHLWDGVTFTSREEFREWFERLFSTSKDAQREIKSLEVRGDTVEVHVQLHATLNGQKHTVDLTHHWHFRGNRVTEVRVHINPTG
[2]; Table 2, single substitutions
  Brightness improvement: Slight increase
[3]; Table 2, single substitutions
  Stability improvement: No change

B11: MBIO-157: LuxSit-i variant Q64W, SEQ ID NO 47 (protein)
chain: MSEEQIRQFLRRFYEALDSGDADTAASLFHPGVTIHLWDGVTFTSREEFREWFERLFSTSKDAWREIKSLEVRGDTVEVHVQLHATHNGQKHTVDLTHHWHFRGNRVTEVRVHINPTG
[2]; Table 2, single substitutions
  Brightness improvement: Slight increase
[3]; Table 2, single substitutions
  Stability improvement: No change

B12: MBIO-158: LuxSit-i variant W100F (protein)
chain: MSEEQIRQFLRRFYEALDSGDADTAASLFHPGVTIHLWDGVTFTSREEFREWFERLFSTSKDAQREIKSLEVRGDTVEVHVQLHATHNGQKHTVDLTHHFHFRGNRVTEVRVHINPTG
[2]; Table 2, single substitutions
  Brightness improvement: Slight increase
[3]; Table 2, single substitutions
  Stability improvement: Monomeric

B13: MBIO-154: LuxSit-i variant F9V_A85F_H87L, SEQ ID NO: 5 (protein)
chain: MSEEQIRQVLRRFYEALDSGDADTAASLFHPGVTIHLWDGVTFTSREEFREWFERLFSTSKDAQREIKSLEVRGDTVEVHVQLHFTLNGQKHTVDLTHHWHFRGNRVTEVRVHINPTG
[2]; [4]
  Brightness improvement: Slight increase
[3]; [4]
  Stability improvement: Slight improvement

B14: MBIO-152: LuxSit-i variant F9S_A85F_H87L_Q64W, SEQ ID NO: 6 (protein)
chain: MSEEQIRQSLRRFYEALDSGDADTAASLFHPGVTIHLWDGVTFTSREEFREWFERLFSTSKDAWREIKSLEVRGDTVEVHVQLHFTLNGQKHTVDLTHHWHFRGNRVTEVRVHINPTG
[2]; [4]
  Brightness improvement: Slight increase
[3]; [4]
  Stability improvement: Slight improvement

## RVVIVRVYVNPTG [MBIO-5343]
LgLux_4039
  Baseline Signal (Normalized by expression): 20200
  Fold change upon Rap addition: 1.8 fold

B15: MBIO-3073: MBIO-2466 variant (Table 12), SEQ ID NO:2711 (protein)
chain: MSEEQIRQNLRRFYEALDSGDADTAASLFDPGVTITLWDGTTFTSVEEFREWFERLFSTSKDALREIKSLEVRGDTVEVTVQLSFTRNGQKHTVDLLQLFKFVGNRVVDVRVYTNPTG
[1]; among variants derived from MBIO-2466, Table 12
  luciferase activity: highest

## HVVAVRVYVNPTG [MBIO-5344]
LgLux_4039
  Baseline Signal (Normalized by expression): 23900
  Fold change upon Rap addition: 2 fold
